According to patent publication US20230310628A1, “Multi-Targeted Multi-Valent Ligand Drug Particles for the Treatment and Prevention of Diseases and Conditions” (priority 2017, published 2023):
Values joined by “and” are separate entries in the source; they are usually repeats but may differ in a detail not shown here. Identical values can stand only once.

How the values were obtained:
[1] = target: epidermal growth factor receptor (EGFR) (human) (UniProt P00533); experiment: dose-uptake, fluorometry of lysed cells, 37 °C, 4 hr; MDA-468 cells (EGFR overexpressed, negligible HER2); 15 F5 scFv per liposome; no significant uptake compared to non-targeted liposomes
[2] = target: human epidermal growth factor receptor 2 (HER2) (human) (UniProt P04626); experiment: flow cytometry (MFI) of DiD-labelled liposomes, 75 µM PL, 37 °C, 4 hr; MKN-7 cells (moderate HER2 and EGFR)
[3] = target: human epidermal growth factor receptor 2 (HER2) (human) (UniProt P04626); experiment: dose-uptake, fluorometry of lysed cells, 37 °C, 4 hr; MKN-7 cells
[4] = target: human epidermal growth factor receptor 2 (HER2) (human) (UniProt P04626); experiment: dose-uptake, fluorometry of lysed cells, 37 °C, 4 hr; BT-474 cells; 15 F5 scFv per liposome
[5] = target: human epidermal growth factor receptor 2 (HER2) (human) (UniProt P04626); experiment: dose-uptake, fluorometry of lysed cells, 37 °C, 4 hr; MKN-7 cells; 10 F5 scFv per liposome
[6] = target: human epidermal growth factor receptor 2 (HER2) (human) (UniProt P04626); experiment: dose-uptake, fluorometry of lysed cells; SK-BR-3 cells; 10 F5 scFv per liposome
[7] = target: human epidermal growth factor receptor 2 (HER2) (human) (UniProt P04626); experiment: dose-uptake, fluorometry of lysed cells, 37 °C, 4 hr; MKN-7 cells; 15 F5 scFv per liposome
[8] = target: human epidermal growth factor receptor 2 (HER2) (human) (UniProt P04626); experiment: dose-uptake, fluorometry of lysed cells, 37 °C, 4 hr; MKN-7 cells; 5 F5 scFv per liposome
[9] = target: human epidermal growth factor receptor 2 (HER2) (human) (UniProt P04626); experiment: dose-uptake, fluorometry of lysed cells, 37 °C, 4 hr; SK-BR-3 cells; plateau at ˜200 µM PL
[10] = target: epidermal growth factor receptor (EGFR) (human) (UniProt P00533); experiment: dose-uptake, fluorometry of lysed cells, 37 °C, 4 hr; MDA-468 cells (EGFR overexpressed, negligible HER2); 10 F5 scFv per liposome; no significant uptake compared to non-targeted liposomes
[11] = target: human epidermal growth factor receptor 2 (HER2) (human) (UniProt P04626); experiment: dose-uptake, fluorometry of lysed cells; SK-BR-3 cells; 15 F5 scFv per liposome
[12] = target: human epidermal growth factor receptor 2 (HER2) (human) (UniProt P04626); experiment: flow cytometry (MFI) of DiD-labelled liposomes, 75 µM PL, 37 °C, 4 hr; BT-474 cells; mono-targeted counterpart with 5 F5 scFv per liposome
[13] = target: human epidermal growth factor receptor 2 (HER2) (human) (UniProt P04626); experiment: dose-uptake, fluorometry of lysed cells, 37 °C, 4 hr; BT-474 cells; 10 F5 scFv per liposome
[14] = target: human epidermal growth factor receptor 2 (HER2) (human) (UniProt P04626); experiment: dose-uptake, fluorometry of lysed cells, 37 °C, 4 hr; BT-474 cells; 5 F5 scFv per liposome
[15] = target: epidermal growth factor receptor (EGFR) (human) (UniProt P00533); experiment: dose-uptake, fluorometry of lysed cells, 37 °C, 4 hr; MDA-468 cells (EGFR overexpressed, negligible HER2); 5 F5 scFv per liposome; no significant uptake compared to non-targeted liposomes
[16] = target: epidermal growth factor receptor (EGFR) (human) (UniProt P00533); experiment: dose-uptake, fluorometry of lysed cells, 37 °C, 4 hr; MDA-468 cells (EGFR overexpressed, negligible HER2); 20 cetuximab-Fab′ and 10 F5 scFv per liposome
[17] = target: epidermal growth factor receptor (EGFR) (human) (UniProt P00533); experiment: dose-uptake, fluorometry of lysed cells, 37 °C, 4 hr; MDA-468 cells (EGFR overexpressed, negligible HER2); 10 cetuximab-Fab′ and 5 F5 scFv per liposome
[18] = target: epidermal growth factor receptor (EGFR) (human) (UniProt P00533); experiment: dose-uptake, fluorometry of lysed cells, 37 °C, 4 hr; MDA-468 cells (EGFR overexpressed, negligible HER2); 20 cetuximab-Fab′ and 15 F5 scFv per liposome
[19] = target: epidermal growth factor receptor (EGFR) (human) (UniProt P00533); experiment: dose-uptake, fluorometry of lysed cells, 37 °C, 4 hr; MDA-468 cells (EGFR overexpressed, negligible HER2); 10 cetuximab-Fab′ and 10 F5 scFv per liposome
[20] = target: human epidermal growth factor receptor 2 (HER2) (human) (UniProt P04626); experiment: dose-uptake, fluorometry of lysed cells, 37 °C, 4 hr; SK-BR-3 cells (HER2 overexpressed, negligible EGFR)
[21] = target: epidermal growth factor receptor (EGFR) (human) (UniProt P00533); experiment: dose-uptake, fluorometry of lysed cells, 37 °C, 4 hr; MDA-468 cells (EGFR overexpressed, negligible HER2); 20 cetuximab-Fab′ and 5 F5 scFv per liposome
[22] = target: epidermal growth factor receptor (EGFR) (human) (UniProt P00533); experiment: flow cytometry (MFI) of DiD-labelled liposomes, 75 µM PL, 37 °C, 4 hr; MDA-468 cells (EGFR overexpressed, negligible HER2)

Substance: anti-HER2 F5 scFv-conjugated immunoliposomes
- LS/Cell Max (liposomes per cell) (liposomes/cell) [1]: 8000
- fold binding over non-targeted liposomes (NT) [2]: 300 fold
- liposomes per cell (liposomes/cell) [3]: < 20000
- LS/Cell Max (liposomes per cell) (liposomes/cell) [4]: 68000
- LS/Cell Max (liposomes per cell) (liposomes/cell) [5]: 4900
- observed cellular uptake (liposomes per cell) (liposomes/cell) [6]: 230000
- LS/Cell Max (liposomes per cell) (liposomes/cell) [7]: 4100
- LS/Cell Max (liposomes per cell) (liposomes/cell) [8]: 8100
- F5 scFv per cell at the plateau [9]: 3e+06 ligands/cell
- liposomes per cell at the plateau (liposomes/cell) [9]: 200000 and 300000
- LS/Cell Max (liposomes per cell) (liposomes/cell) [10]: 1100
- observed cellular uptake (liposomes per cell) (liposomes/cell) [11]: 230000
- fold binding over non-targeted liposomes (NT) [12]: 200 fold
- LS/Cell Max (liposomes per cell) (liposomes/cell) [13]: 72000
- LS/Cell Max (liposomes per cell) (liposomes/cell) [14]: 40000
- LS/Cell Max (liposomes per cell) (liposomes/cell) [15]: 5300

Substance: anti-HER2 and anti-EGFR dual-targeted immunoliposomes
- Anti-EGFR Lg/Cell Max (ligands per cell) [16]: 1.1e+06 ligands/cell
- LS/Cell Max (liposomes per cell) (liposomes/cell) [16]: 53000
- Anti-EGFR Lg/Cell Max (ligands per cell) [17]: 270000 ligands/cell
- LS/Cell Max (liposomes per cell) (liposomes/cell) [17]: 27000
- Anti-EGFR Lg/Cell Max (ligands per cell) [18]: 1.2e+06 ligands/cell
- LS/Cell Max (liposomes per cell) (liposomes/cell) [18]: 59000
- Anti-EGFR Lg/Cell Max (ligands per cell) [19]: 220000 ligands/cell
- LS/Cell Max (liposomes per cell) (liposomes/cell) [19]: 22000
- F5 scFv per cell [20]: 2e+06 ligands/cell and 3e+06 ligands/cell
- Anti-EGFR Lg/Cell Max (ligands per cell) [21]: 1.2e+06 ligands/cell
- LS/Cell Max (liposomes per cell) (liposomes/cell) [21]: 61000
- fold binding over non-targeted liposomes (NT) [22]: 500 fold
